Source: article PMC10499536 (Nature, 2022)

Target: the molecule itself
Experiment: cryo-EM structure

B1: truncated mouse mIgM heavy chain lacking the two Fab arms (of IgM BCRΔFab; vector pMS-RL2b) (receptor)
heavy: AEAAAKEAAAKEAAAKAAVAEMNPNVNVFVPPRDGFSGPAPRKSKLICEATNFTPKPITVSWLKDGKLVESGFTTDPVTIENKGSTPQTYKVISTLTISEIDWLNLNVYTCRVDHRGLTFLKNVSSTCAASPSTDILTFTIPPSFADIFLSKSANLTCLVSNLATYETLNISWASQSGEPLETKIKIMESHPNGTFSAKGVASVCVEDWNNRKEFVCTVTHRDLPSPQKKFISKPNEVHKHPPAVYLLPPAREQLNLRESATVTCLVKGFSPADISVQWLQRGQLLPQEKYVTSAPMPEPGAPGFYFTHSILTVTEEEWNSGETYTCVVGHEALPHLVTERTVDKSTEGEVNAEEEGFENLWTTASTFIVLFLLSLFYSTTVTLFKVK
Q: Does B1 bind?
A: binds
